Laboratory results: patent US20230060388A1 (SHANGHAI HENLIUS BIOTECH, published 2023)

Experiments:
[1] = molecular target: T1, human TIGIT expressed on cells (stably transfected Jurkat cells) (human, UniProt Q495A1 22-244); test: flow cytometry on h-TIGIT transfected Jurkat cells (whole cell binding), Alexa Fluor 488 [upper panel]
T1 construct: Also used here for TIGIT on primary T cells in the MLR; also called h-TIGIT; T cell immunoreceptor with Ig and ITIM domains
T1 sequence: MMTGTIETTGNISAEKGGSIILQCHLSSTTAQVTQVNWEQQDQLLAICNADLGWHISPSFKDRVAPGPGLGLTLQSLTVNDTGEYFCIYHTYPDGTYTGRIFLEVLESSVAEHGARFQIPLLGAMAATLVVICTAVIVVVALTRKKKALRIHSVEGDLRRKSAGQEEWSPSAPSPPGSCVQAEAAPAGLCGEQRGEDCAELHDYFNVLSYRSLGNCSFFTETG

[2] = molecular target: T1, human TIGIT expressed on cells (stably …); test: cell-based or functional assay
[3] = molecular target: T2, recombinant cynomolgus TIGIT (cynomolgus monkey); test: ELISA on recombinant cyno-TIGIT
T2 construct: also called cyno-TIGIT; cyno-TIGIT ECD
Experimental: (§1) FIGS. 8A-8C depict cross-binding activity of 2A3-Fc to human-, cyno- and mouse-TIGIT determined by ELISA assays. […] Reference Ab 2 is an anti-h-TIGIT reference antibody. Both 2A3-Fc and Reference Ab 2 bind to h-TIGIT with similar affinity. […] Both 2A3-Fc and Reference Ab 2 bind to cyno-TIGIT with similar affinity. […] Y axis represents OD450, X axis represents antibody concentrations in μg/ml.
(§2) Cross-species binding activity of 2A3-Fc to human, cynomolgus and mouse TIGIT was determined by ELISA assays, results of which are shown in FIGS. 8A-8C. 2A3-Fc bound to human, cynomolgus monkey but not mouse TIGIT.

recombinant mouse TIGIT = molecular target: T3, recombinant mouse TIGIT (mouse, UniProt P86176 29-148, limits assumed); test: ELISA, recombinant mouse-TIGIT
T3 sequence (looked up): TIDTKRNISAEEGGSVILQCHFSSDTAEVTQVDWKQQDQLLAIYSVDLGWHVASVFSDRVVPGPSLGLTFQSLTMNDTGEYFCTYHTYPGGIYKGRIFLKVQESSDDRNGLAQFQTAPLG

[4] = molecular target: T4, recombinant human TIGIT extracellular domain (ECD) (human, UniProt Q495A1 22-138); test: ELISA on recombinant human TIGIT ECD
T4 construct: also called h-TIGIT ECD; recombinant human TIGIT ECD
T4 sequence: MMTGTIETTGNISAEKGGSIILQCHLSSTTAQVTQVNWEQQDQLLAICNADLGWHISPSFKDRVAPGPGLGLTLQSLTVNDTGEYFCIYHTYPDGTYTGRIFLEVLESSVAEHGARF
Experimental: as §1, §2

- EC50 (read off the curve) [1]: ~0.5 nM
- EC50 (read off the curve) of the NFAT luciferase reporter activity, TIGIT blockade assay [lower panel] [2]: ~1 nM
- EC50 (read off the curve) [3]: ~0.1 µg/mL
- binding result (recombinant mouse TIGIT): no binding
- EC50 (read off the curve) [4]: ~0.1 µg/mL
B1: 2A3-Fc (bivalent 2A3 antibody) (Fc fusion)
chain: QVQLVESGGGVVQPGRSLRLSCAASGGSFSSYPMGWFRQAPGKERESVAAISSDMRFTYYADSVKGRFTISRDNSKNTLYLQMNSLRAEDTAVYYCAARDSGVGYYSRAQWYDYWGQGTLVTVSS
notes: also called parental 2A3-Fc; 2A3 clone; not shown: human IgG1 CH2 and CH3 domains
